According to patent US20240342244A1, “Isthmin Protein Therapeutics for the Treatment of Non-Alcoholic Fatty Liver Disease” (The Board of Trustees of the Leland Stanford Junior …, priority 2021, published 2024):

Assays:
ISM1-KO mice = experiment: In vivo 2-deoxy-3H-glucose uptake in ISM1-KO mice treated with ISM1 protein; set-up: species or system mouse; settings: 5 mg/kg ISM1 protein for two days; male ISM1-KO mice
Experimental: In vivo glucose uptake. Mice were fasted for 1 h and injected I.P. with 3H-2-deoxyglucose (3H-2-DOG) at 100 uCi/kg with or without 0.75 U/kg insulin in a total volume of 120 ul per mouse. After 30 min, mice were euthanized. Blood was collected by cardiac puncture and subsequently centrifuged to collect serum. Wet tissue weights were recorded then homogenized in 1% SDS for liquid scintillation counting. Data are expressed as CPM/mg wet weight (fold change over control).

pAKT^S473 = experiment: pAKT S473 western blot in C2C12 skeletal muscle cells; format: cell-based; settings: 100 nM, 5 min
Experimental: (§1) Western blots and molecular analyses. For western blotting, homogenized tissues or whole-cell lysates, samples were lysed in RIPA buffer containing protease inhibitor cocktail (Roche) and phosphatase inhibitor cocktail (Roche). Cell lysates were centrifuged at 14,000×g for 15 min and supernatants were prepared in 4×LDS Sample Buffer (Invitrogen) and separated by SDS-PAGE and transferred to Immobilon 0.45 μm membranes (Millipore). For Western blotting of plasma samples, 1 μl of plasma was prepared in 2× sample buffer (Invitrogen) with reducing agent, boiled, and analyzed using Western blot against indicated antibody. Protein kinase array (R&D systems ARY003B) was performed according to the manufacturers' description. All antibodies used in this paper are described in STAR methods.

[1] = system: pAKT^T308, S6^S235/S236, PRAS40^Thr246, ERK1/2, PKA, PDK1, GSK3β; experiment: Time-course western blot of intracellular signaling pathways in 3T3-F442A cells; format: cell-based
Experimental: as §1

pS6^S235/S236 = experiment: Acute and long-term signaling in AML12 hepatocytes (western blot); format: cell-based, mouse
Experimental: as §1

[2] = Pharmacokinetic measurement of ISM1 blood levels (anti-his ELISA, western blot); format: in vivo, mouse; settings: mice
Experimental: Pharmacokinetic measurements of ISM1 blood levels following ISM1 administration. An anti-his tag ELISA was performed to measure ISM1-his concentrations in blood. Recombinant ISM1 protein was administered at 10 mg/kg I.V. in a total volume of 100 ul. Blood was collected and centrifuged at 6000×g for 10 minutes at room temperature to collect serum. Blood levels were measured using the HisProbe-HRP Conjugate according to the manufacturer's instructions (Thermo #15165). Briefly, samples were prepared by diluting serum in coating buffer at 1:100 ratio and added to wells for overnight incubation at 4° C. Nonspecific binding was blocked by adding blocking buffer and incubating for 30 min at 37° C. The plate was washed three times with wash buffer. HisProbe-HRP (Thermo, #15165) working solution was added to each well. After 15 min incubation at room temperature, the plate was washed four times with wash buffer, followed by adding substrate (Thermo, #34022). After 10 min, 1N sulfuric acid was added to stop the reaction. Absorbance was measured at 450 nm.

DIO mice = experiment: Therapeutic ISM1, Metformin or combined administration for 21 days in DIO mice; format: in vivo, mouse; settings: daily for 21 days; compared with vehicle
Experimental: Therapeutic ISM1 recombinant protein administration in vivo. All pharmacologic studies using recombinant ISM1 protein were performed in mice with established diet-induced obesity or non-alcoholic fatty liver disease (NAFLD). For all experiments, male C57BL/6J mice purchased from Jax were fed either a high-fat diet (#D12492, Research Diets) or a NAFLD diet (#D09100310, Research Diets) prior to ISM1 protein injections. In all experiments, mice were mock injected with saline for three days prior to protein or drug injections to prevent stress-induced weight loss. Mice were I.P. injected with vehicle (saline) or indicated doses of ISM1 protein diluted in saline. For the 14-day experiments in NAFLD mice, 7-weeks old mice were fed with NAFLD diet for 3 weeks and then mock injected with saline for 3 days prior to protein injections. The induction of lipid accumulation with NAFLD diet was verified by the significant increase in hepatic lipid levels compared with mice on chow diet at the same time point. NAFLD mice were then daily I.P. injected with either vehicle (saline containing 5% DMSO and 10% Kolliphor) or indicated doses of ISM1 protein (500 μg/kg or 5 mg/kg) or with FXR agonist (30 mg/kg, GW4064, Sigma-Aldrich, #G5172) diluted in vehicle (saline containing 5% DMSO and 10% Kolliphor). For the 21-day experiments in HFD mice, mice were mock injected with saline for three days prior to protein injections. Mice were then daily I.P. injected with either vehicle (saline) or 5 mg/kg of ISM1 protein diluted in saline. Metformin (100 mg/kg, Sigma, #317240) was diluted in saline and daily administered by oral gavage. All groups received control injections by I.P. and oral gavage. At the end of the experiments, mice and tissue weights were recorded. Tissues and plasma were collected and frozen for further analyses.
Glucose tolerance and insulin tolerance tests. For glucose tolerance tests, mice were fasted overnight and I.P. injected with glucose at 2 g/kg body weight. Blood glucose levels were measured at 0, 15, 30, 45, 60, 90 and 120 mins. For insulin tolerance tests, mice were fasted for 2 h, and I.P. injected with 0.75 U/kg insulin. Blood glucose levels were measured at 0, 15, 30, 45, 60, 90 and 120 mins.

B1: ISM1: recombinant mouse ISM1 protein with a C-terminal myc-his tag generated in mammalian HEK 293 Expi cells (protein, UniProt A2ATD1 30-454, looked up)
Isthmin-1: SDRQDAAAGNNNLNLESDSTSETSFPLSKEAPEEHQVVHQPFPRQRFPPETGHPSLQRDGPRSFLLDLPNFPDLSKADINGQNPNIQVTIEVVDGPDSEAEKDQHPENKPSWSLPAPDWRAWWQRSLSLARTNSGDQDDKYDSTSDDSNFLSVPRGWDRPAPGHRTFETKEQPEYDSTDGEGDWSLWSVCSVTCGNGNQKRTRSCGYACIATESRTCDRPNCPGIEDTFRTAATEVSLLAGSEEFNATKLFEVDMDSCERWMSCKSEFLKKYMHKVINDLPSCPCSYPTEVAYSTADIFDRIKRKDFRWKDASGPKEKLEIYKPTARYCIRSMLSLESTTLAAQHCCYGDNMQLITRGKGAGTPNLISTEFSAELHYKVDVLPWIICKGDWSRYNEARPPNNGQKCTESPSDEDYIKQFQEAREY
modifications: C-terminal myc-His tag
notes: recombinant mouse ISM1 protein with a C-terminal myc-his tag generated in mammalian HEK 293 Expi cells
- glucose uptake in BAT (ISM1-KO mice): increase glucose uptake
- glucose uptake in iWAT (ISM1-KO mice): trending increase
- glucose uptake in liver (ISM1-KO mice): no hepatic glucose uptake induction
- glucose uptake in skeletal muscle (ISM1-KO mice): increase glucose uptake
- pAKT^S473 induction (pAKT^S473): induced pAKT^S473
- activation of S6^S235/S236 and PRAS40^Thr246 ([1]; 100 nM, time course): time-dependent activation
- pAKT^T308 phosphorylation ([1]; 100 nM, time course): phosphorylation at pAKT^T308 at all time points
- ERK1/2 phosphorylation ([1]; 100 nM, vs 20 ng/ml PDGF-ββ): does not evoke as robust ERK1/2 phosphorylation as the known mitogen PDGF-ββ
- ERK1/2 phosphorylation ([1]; 200 nM ISM1 vs 100 nM insulin): prolonged and more potent phosphorylation of ERK1/2 than insulin
- activity on other pathways such as PKA, PDK1 or GSK3P ([1]; even at 200 nM doses): does not display any activity or displays only weak activity
- pS6^S235/S236 after long-term treatment (pS6^S235/S236; 24 h treatment): induces hyperactivation of pS6^S235/S236
- acute signaling added to insulin (pS6^S235/S236; insulin 1 nM up to 100 nM with 25 nM or 50 nM ISM1, 5 min): do not result in any additional signaling changes
- half-life in the blood ([2]; 10 mg/kg I.V., serum, anti-his ELISA): approximately 70 minutes
- protein integrity in plasma (western blot) ([2]; after I.V. administration): no observed protein degradation or cleavage
- fasting blood glucose (DIO mice): lower
- glucose tolerance (GTT) (DIO mice): comparable effects on improving glucose tolerance
